In US20250152742A1, “COMPOSITIONS AND METHODS FOR NEUROLOGICAL DISEASES” (Trames Bio, Inc., priority 2022, published 2025):
Substitutions are numbered along the chain they refer to. Names may count otherwise.

System: engineered chimeric receptor SEQ ID NO: 33 and its mutants (human α7-nAChR ligand binding domain / human GlyRα1 ion pore domain) in Lenti-X 293T cells
Assay: YFP fluorescence quenching anion reporter plate reader assay (percent quench, EC50)
Format: cell-based
Conditions: for YFP fluorescence quenching using CNL001 (percent quench): receptor named in row; for YFP fluorescence quenching using Facinicline, 30 nM fac: ligand Facinicline 30 nM; for YFP fluorescence quenching using Facinicline, 300 nM fac: ligand Facinicline 300 nM; for YFP fluorescence quenching using Facinicline, 10 uM fac: ligand Facinicline 10 uM; for YFP fluorescence quenching using Facinicline, 30 uM fac: ligand Facinicline 30 uM; for YFP fluorescence quenching using TC-6987, 1 uM tc6987: ligand TC-6987 1 uM; for YFP fluorescence quenching using TC-6987, 10 uM tc6987: ligand TC-6987 10 uM; for YFP fluorescence quenching using TC-6987, 500 uM tc6987: ligand TC-6987 500 uM; for YFP fluorescence quenching using Varenicline, 3 nM var: ligand Varenicline 3 nM; for YFP fluorescence quenching using Varenicline, 30 nM var: ligand Varenicline 30 nM; for YFP fluorescence quenching using Varenicline, 300 nM var: ligand Varenicline 300 nM; for YFP fluorescence quenching using Varenicline, 500 nM var: ligand Varenicline 500 nM; for YFP fluorescence quenching using Varenicline, 1 uM var: ligand Varenicline 1 uM
From the text: To screen these mutant LGICs for those having novel response profiles to ligands, an anion reporter assay was developed to assess the function of the LGICs in a high throughput format. In this assay, cells expressing a YFP reporter whose fluorescence is quenched in the presence of anion are transfected with DNA encoding the channel of interest. Upon exposure to ligand, channels that are activated will flux anion, resulting in a dose-dependent quench of the YFP that can be detected on a plate reader. The greater the quench signal (i.e., the more positive the value), the higher the ligand activity on the receptor is.
Lenti-X 293T cells (LX293T, Clontech) were maintained in DMEM containing 10% FBS and 1% penicillin/streptomycin (Invitrogen). […] Two days before assay, cells were split at a density of 20,000 cells/well in a 96-well tissue culture plate coated with poly-d lysine (Thermo Scientific). The next day, the cells were transiently transfected with 0.1 μg of DNA per well using standard Fugene protocol (Promega). On the day of assay, cells were washed 2 times in 1X extracellular solution (1X ECS: 140 mM NaCl, 5 mM KCl, 1 mM MgCl2, 2 mM CaCl2, 10 mM HEPES, 10 mM glucose, pH 7.2, mOsms 300). After the last wash, 100 μL of 1X ECS was added to the wells and the plate was incubated at 37° C. for 30 min. While incubating the plate, the drugs were diluted to a 2X concentration in 1X ECS-Nal (same components as 1X ECS except the 140 mM NaCl was replaced by 140 mM Nal). The plates were then read on a Flexstation3 (Molecular Devices). Each well, 8 wells at a time, of the plate is read for 2 min using a Flexstation3 (Molecular Devices) as follows: 1) a baseline YFP fluorescence is read for 17 sec, 2) 100 μL of ligand is added, and 3) the changes in YFP fluorescence are then measured every 1.3 sec for 1 minute and 43 seconds. The percent quench is calculated from the average fluorescence of the last 10 seconds of the read divided by the baseline average of the first 15 seconds prior to the ligand addition.
FIGS. 1A-1J provide heat maps of the percent quench of YFP fluorescence following stimulation by various doses of either acetylcholine or the non-native ligand as indicated in the Figures. CODA71 (SEQ ID NO: 33) was used as a control, and CODA75 (SEQ ID NO: 29, a non-responding chimeric engineered receptor) was used as the negative control. Quenching of the fluorescence signal, as indicated by blue shaded cells, indicate the level of engineered receptor activation by the non-native ligand at that concentration.

[1] = 1 nM CNL001, first column so headed
[2] = 1 nM CNL001, second column so headed
[3] = 1 nM brd (TC-5619/Bradanicline)
[4] = 3 nM brd (TC-5619/Bradanicline)
[5] = 10 nM CNL001, first column so headed
[6] = 10 nM CNL001, second column so headed
[7] = 10 nM brd (TC-5619/Bradanicline)
[8] = 30 nM brd (TC-5619/Bradanicline)
[9] = 50 nM CNL001, first column so headed
[10] = 50 nM CNL001, second column so headed
[11] = 100 nM CNL001, first column so headed
[12] = 100 nM CNL001, second column so headed
[13] = 100 nM brd (TC-5619/Bradanicline)
[14] = 300 nM brd (TC-5619/Bradanicline)
[15] = 1 uM CNL001, first column so headed
[16] = 1 uM CNL001, second column so headed
[17] = 1 uM brd (TC-5619/Bradanicline)

B1: CODA282: engineered receptor: Y115D in SEQ ID NO: 33 (protein)
chain: MRCSPGGVWLALAASLLHVSLQGEFQRKLYKELVKNYNPLERPVANDSQPLTVYFSLSLLQIMDVDEKNQVLTTNIWLQMSWTDHYLQWNVSEYPGVKTVRFPDGQIWKPDILLDNSADERFDATFHTNVLVNSSGHCQYLPPGIFKSSCPMDLKNFPMDVQTCKLKFGSWSYGGWSLDLQMQEADISGYIPNGEWDLVGIPGKRSERFYECCKEPYPDVTFTVTMRRRMGYYLIQMYIPSLLIVILSWISFWINMDAAPARVGLGITTVLTMTTQSSGSRASLPKVSYVKAIDIWMAVCLLFVFSALLEYAAVNFVSRQHKELLRFRRKRRHHKSPMLNLFQEDEAGEGRFNFSAYGMGPACLQAKDGISVKGANNSNTTNPPPAPSKSPEEMRKLFIQRAKKIDKISRIGFPMAFLIFNMFYWIIYKIVRREDVHNQ
modifications: synthetic sequence of chimeric LGIC
YFP fluorescence quenching using CNL001 (percent quench) [1]: −15.837%
YFP fluorescence quenching using CNL001 (percent quench) [2]: −6.519%
YFP fluorescence quenching using TC-5619/Bradanicline (percent quench) [3]: −0.54%
YFP fluorescence quenching using TC-5619/Bradanicline (percent quench) [4]: −7.22%
YFP fluorescence quenching using CNL001 (percent quench) [5]: −4.862%
YFP fluorescence quenching using CNL001 (percent quench) [6]: −8.244%
YFP fluorescence quenching using TC-5619/Bradanicline (percent quench) [7]: −2.82%
YFP fluorescence quenching using TC-6683 (percent quench) (30 nM TC-6683): 0.365%
YFP fluorescence quenching using TC-5619/Bradanicline (percent quench) [8]: −16.67%
YFP fluorescence quenching using CNL001 (percent quench) [9]: −3.807%
YFP fluorescence quenching using CNL001 (percent quench) [10]: −2.871%
YFP fluorescence quenching using ABT-126 (percent quench) (50 nM abt (ABT-126)): −21.22%
YFP fluorescence quenching using CNL001 (percent quench) [11]: −7.924%
YFP fluorescence quenching using CNL001 (percent quench) [12]: 2.11%
YFP fluorescence quenching (percent quench) (100 nM CNL002): −9.7%
YFP fluorescence quenching using ABT-126 (percent quench) (100 nM abt (ABT-126)): −19.7%
YFP fluorescence quenching using AZD-0328 (percent quench) (100 nM azd0328): 3.19%
YFP fluorescence quenching using TC-5619/Bradanicline (percent quench) [13]: −0.02%
YFP fluorescence quenching using TC-6683 (percent quench) (300 nM TC-6683): −6.865%
YFP fluorescence quenching using ABT-126 (percent quench) (300 nM abt (ABT-126)): −15.55%
YFP fluorescence quenching using AZD-0328 (percent quench) (300 nM azd0328): 4.79%
YFP fluorescence quenching using TC-5619/Bradanicline (percent quench) [14]: −12.37%
YFP fluorescence quenching using CNL001 (percent quench) [15]: 11.047%
YFP fluorescence quenching using CNL001 (percent quench) [16]: 8.04%
YFP fluorescence quenching (percent quench) (1 uM CNL002): −8.37%
YFP fluorescence quenching using ABT-126 (percent quench) (1 uM abt (ABT-126)): −14.31%
YFP fluorescence quenching using TC-5619/Bradanicline (percent quench) [17]: 31.23%
YFP fluorescence quenching using TC-6683 (percent quench) (3 uM TC-6683): −4.927%
YFP fluorescence quenching (percent quench) (10 uM ach (acetylcholine)): 6.81%
YFP fluorescence quenching (percent quench) (30 uM CNL002): 3.4%
YFP fluorescence quenching using TC-6683 (percent quench) (30 uM TC-6683): −11.259%
YFP fluorescence quenching using AZD-0328 (percent quench) (30 uM azd0328): 76.78%
YFP fluorescence quenching using TC-6683 (percent quench) (100 uM TC-6683): −11.894%
YFP fluorescence quenching (percent quench) (100 uM ach (acetylcholine)): 1.19%
YFP fluorescence quenching (percent quench) (1 mM ach (acetylcholine)): −14.05%
YFP fluorescence quenching (percent quench) (3 mM ach (acetylcholine)): 2.37%
YFP fluorescence quenching using Facinicline, 30 nM fac: 10.17
YFP fluorescence quenching using Facinicline, 100 nM fac (ligand Facinicline 100 nM): 24.77
YFP fluorescence quenching using Facinicline, 300 nM fac: 51.04
YFP fluorescence quenching using Facinicline, 10 uM fac: 79.76
YFP fluorescence quenching using Facinicline, 30 uM fac: 81.7
YFP fluorescence quenching using TC-6987, 1 uM tc6987: 13.01
YFP fluorescence quenching using TC-6987, 10 uM tc6987: 14.73
YFP fluorescence quenching using TC-6987, 500 uM tc6987: 14.29
YFP fluorescence quenching using Varenicline, 3 nM var (first column): 2.111
YFP fluorescence quenching using Varenicline, 3 nM var (second column): −12.265
YFP fluorescence quenching using Varenicline, 30 nM var (first column): −4.433
YFP fluorescence quenching using Varenicline, 30 nM var (second column): −6.153
YFP fluorescence quenching using Varenicline, 300 nM var (first column): −0.861
YFP fluorescence quenching using Varenicline, 300 nM var (second column): −1.308
YFP fluorescence quenching using Varenicline, 500 nM var (first column): 0.733
YFP fluorescence quenching using Varenicline, 500 nM var (second column): −4.633
YFP fluorescence quenching using Varenicline, 1 uM var (first column): −4.512
YFP fluorescence quenching using Varenicline, 1 uM var (second column): 0.02

B2: CODA283: engineered receptor: Y115E_N379K in SEQ ID NO: 33 (protein)
chain: B1 chain with D115E, N379K
modifications: synthetic sequence of chimeric LGIC
YFP fluorescence quenching using CNL001 (percent quench) [1]: −0.713%
YFP fluorescence quenching using CNL001 (percent quench) [2]: −0.621%
YFP fluorescence quenching using TC-5619/Bradanicline (percent quench) [3]: 0.59%
YFP fluorescence quenching using TC-5619/Bradanicline (percent quench) [4]: −6.41%
YFP fluorescence quenching using CNL001 (percent quench) [5]: 7.739%
YFP fluorescence quenching using CNL001 (percent quench) [6]: 15.277%
YFP fluorescence quenching using TC-5619/Bradanicline (percent quench) [7]: −1.58%
YFP fluorescence quenching using TC-5619/Bradanicline (percent quench) [8]: −14.24%
YFP fluorescence quenching using CNL001 (percent quench) [9]: 19.489%
YFP fluorescence quenching using CNL001 (percent quench) [10]: 33.703%
YFP fluorescence quenching using ABT-126 (percent quench) (50 nM abt (ABT-126)): −22.65%
YFP fluorescence quenching using CNL001 (percent quench) [11]: 56.886%
YFP fluorescence quenching using CNL001 (percent quench) [12]: 60.171%
YFP fluorescence quenching (percent quench) (100 nM CNL002): −5.81%
YFP fluorescence quenching using ABT-126 (percent quench) (100 nM abt (ABT-126)): −20.55%
YFP fluorescence quenching using AZD-0328 (percent quench) (100 nM azd0328): −2.1%
YFP fluorescence quenching using TC-5619/Bradanicline (percent quench) [13]: 33.36%
YFP fluorescence quenching using ABT-126 (percent quench) (300 nM abt (ABT-126)): −12.93%
YFP fluorescence quenching using AZD-0328 (percent quench) (300 nM azd0328): 38.2%
YFP fluorescence quenching using TC-5619/Bradanicline (percent quench) [14]: 43.81%
YFP fluorescence quenching using CNL001 (percent quench) [15]: 69.836%
YFP fluorescence quenching using CNL001 (percent quench) [16]: 73.855%
YFP fluorescence quenching (percent quench) (1 uM CNL002): 9.69%
YFP fluorescence quenching using ABT-126 (percent quench) (1 uM abt (ABT-126)): 1.71%
YFP fluorescence quenching using TC-5619/Bradanicline (percent quench) [17]: 75.39%
YFP fluorescence quenching (percent quench) (10 uM ach (acetylcholine)): −6.16%
YFP fluorescence quenching (percent quench) (30 uM CNL002): −12.85%
YFP fluorescence quenching using AZD-0328 (percent quench) (30 uM azd0328): 79.44%
YFP fluorescence quenching (percent quench) (100 uM ach (acetylcholine)): −11.12%
YFP fluorescence quenching (percent quench) (1 mM ach (acetylcholine)): −2.74%
YFP fluorescence quenching (percent quench) (3 mM ach (acetylcholine)): 53.61%
YFP fluorescence quenching using Facinicline, 30 nM fac: 6.39
YFP fluorescence quenching using Facinicline, 300 nM fac: 78.36
YFP fluorescence quenching using Facinicline, 10 uM fac: 81.93
YFP fluorescence quenching using Facinicline, 30 uM fac: 78.63
YFP fluorescence quenching using TC-6987, 1 uM tc6987: −9.54
YFP fluorescence quenching using TC-6987, 10 uM tc6987: −7.06
YFP fluorescence quenching using TC-6987, 500 uM tc6987: −15.15
